Numbering of substitutions follows the chain as printed. Values belong to the binder of their own block, whether it stands above or below them.
What was measured:
[1] = target: T1, MsbA (WT), purified, His tag cleaved (Escherichia coli K-12); test: cryo-EM structure
T1 chain: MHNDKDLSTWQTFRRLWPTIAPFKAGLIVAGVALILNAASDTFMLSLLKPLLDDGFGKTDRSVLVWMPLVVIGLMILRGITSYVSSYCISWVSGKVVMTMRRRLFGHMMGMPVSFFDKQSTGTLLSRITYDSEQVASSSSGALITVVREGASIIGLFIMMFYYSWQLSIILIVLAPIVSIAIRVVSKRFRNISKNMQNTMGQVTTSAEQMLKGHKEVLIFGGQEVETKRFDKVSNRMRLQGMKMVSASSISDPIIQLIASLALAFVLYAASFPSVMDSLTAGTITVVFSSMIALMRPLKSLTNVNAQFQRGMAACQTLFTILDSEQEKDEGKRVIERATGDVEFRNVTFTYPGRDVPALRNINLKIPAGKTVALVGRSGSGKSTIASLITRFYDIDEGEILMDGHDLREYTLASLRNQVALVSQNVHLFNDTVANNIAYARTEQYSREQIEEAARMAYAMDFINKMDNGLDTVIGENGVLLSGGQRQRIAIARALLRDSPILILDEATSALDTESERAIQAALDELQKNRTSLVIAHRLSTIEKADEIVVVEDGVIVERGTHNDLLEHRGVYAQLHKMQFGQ

[2] = target: MsbA (WT), overexpressed in E. coli membranes and cells (Escherichia coli K-12, UniProt P60752); test: DEER
[3] = target: Avi-tagged full-length MsbA, biotinylated, detergent-solubilized (Escherichia coli (K-12 sequence), UniProt P60752, biotin on the Avi-tag (enzymatic, BirA)); test: grating-coupled interferometry

binding result [1]: binds
binding result [2]: binds
binding result [3]: binds
B1: Nb_MsbA#1_A60C labeled with Gd-DOTA (VHH)
VHH: QMQLVESGGGLVQAGGSLRLSCAVSGSIFSIITLAWYRQAPGKPRENVATITRGSRTSYCDSVKGRFTISKDNAKSTVYLQMNKLKPEDTADYYCNAEGPAGYWGQGTPVTVS

binding result [1]: binds
binding result [2]: binds
binding result [3]: binds
B2: Nb_MsbA#1_T68C labeled with Gd-DOTA (VHH)
VHH: B1 VHH with C60A, T68C

From PMC9555771 (Science Advances, 2022)
